Measured values from article PMC8291048.

Molecular target: PKM2, endogenous in T24 cells (human (endogenous in T24)) (UniProt P14618)
Experiment: cross-linking; T24 cells (LV-DPYSL2, siDPYSL2 or negative control) lysed in 0.5% Triton X-100 sodium phosphate buffer pH 7.3; supernatant treated with 1% formaldehyde for 30 min; Western blot for PKM2 monomer, dimer and tetramer

For “PKM2, endogenous in T24 cells (from UniProt P14618 1-531) (enzyme; other documents disagree on this pair)”, the stoichiometry N was 2.
